In article PMC6854080, “Increased Mosquito Midgut Infection by Dengue Virus Recruitment of Plasmin Is Blocked by an Endogenous Kazal-type Inhibitor” (iScience, 2019):

Target: T1, recombinant AaTI (Aedes aegypti Kazal-type serine protease inhibitor) (Aedes aegypti, UniProt Q177W0 23-91)
T1 construct: recombinant protein of 9.85 kDa inclusive of His-tag; also called rAaTI; wild-type rAaTI; source: bacterial system, purified
T1 sequence (looked up): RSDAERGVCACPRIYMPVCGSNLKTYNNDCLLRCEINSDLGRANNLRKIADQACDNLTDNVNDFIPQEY
Experiment: BLI; rAaTI-preloaded biosensors immersed into plasmin solutions of different concentrations; association and dissociation curves fitted globally to 1:1 kinetics
Conditions: both partners purified

B1: human plasmin (enzyme)
chain 1: KVYLSECKTGNGKNYRGTMSKTKNGITCQKWSSTSPHRPRFSPATHPSEGLEENYCRNPDNDPQGPWCYTTDPEKRYDYCDILECEEECMHCSGENYDGKISKTMSGLECQAWDSQSPHAHGYIPSKFPNKNLKKNYCRNPDRELRPWCFTTDPNKRWELCDIPRCTTPPPSSGPTYQCLKGTGENYRGNVAVTVSGHTCQHWSAQTPHTHNRTPENFPCKNLDENYCRNPDGKRAPWCHTTNSQVRWEYCKIPSCDSSPVSTEQLAPTAPPELTPVVQDCYHGDGQSYRGTSSTTTTGKKCQSWSSMTPHRHQKTPENYPNAGLTMNYCRNPDADKGPWCFTTDPSVRWEYCNLKKCSGTEASVVAPPPVVLLPDVETPSEEDCMFGNGKGYRGKRATTVTGTPCQDWAAQEPHRHSIFTPETNPRAGLEKNYCRNPDGDVGGPWCYTTNPRKLYDYCDVPQCAAPSFDCGKPQVEPKKCPGR
chain 2: VVGGCVAHPHSWPWQVSLRTRFGMHFCGGTLISPEWVLTAAHCLEKSPRPSSYKVILGAHQEVNLEPHVQEIEVSRLFLEPTRKDIALLKLSSPAVITDKVIPACLPSPNYVVADRTECFITGWGETQGTFGAGLLKEAQLPVIENKVCNRYEFLNGRVQSTELCAGHLAGGTDSCQGDSGGPLVCFEKDKYILQGVTSWGLGCARPNKPGVYVRVSRFVTWIEGVMRNN
modifications: active two-chain plasmin (Lys-plasmin limits from the UniProt chain features; the paper prints none), heavy and light chains joined by interchain disulfides; natural glycosylation
Kd: 62.8 nM
